Experimental data reported in IntAct's records for PubMed 17997972.

B1: Nuclear distribution protein nudE-like 1 (Homo sapiens), Q9GZM8 (parent)
chain: MDGEDIPDFSSLKEETAYWKELSLKYKQSFQEARDELVEFQEGSRELEAELEAQLVQAEQRNRDLQADNQRLKYEVEALKEKLEHQYAQSYKQVSVLEDDLSQTRAIKEQLHKYVRELEQANDDLERAKRATIVSLEDFEQRLNQAIERNAFLESELDEKESLLVSVQRLKDEARDLRQELAVRERQQEVTRKSAPSSPTLDCEKMDSAVQASLSLPATPVGKGTENTFPSPKAIPNGFGTSPLTPSARISALNIVGDLLRKVGALESKLAACRNFAKDQASRKSYISGNVNCGVLNGNGTKFSRSGHTSFFDKGAVNGFDPAPPPPGLGSSRPSSAPGMLPLSV
partner: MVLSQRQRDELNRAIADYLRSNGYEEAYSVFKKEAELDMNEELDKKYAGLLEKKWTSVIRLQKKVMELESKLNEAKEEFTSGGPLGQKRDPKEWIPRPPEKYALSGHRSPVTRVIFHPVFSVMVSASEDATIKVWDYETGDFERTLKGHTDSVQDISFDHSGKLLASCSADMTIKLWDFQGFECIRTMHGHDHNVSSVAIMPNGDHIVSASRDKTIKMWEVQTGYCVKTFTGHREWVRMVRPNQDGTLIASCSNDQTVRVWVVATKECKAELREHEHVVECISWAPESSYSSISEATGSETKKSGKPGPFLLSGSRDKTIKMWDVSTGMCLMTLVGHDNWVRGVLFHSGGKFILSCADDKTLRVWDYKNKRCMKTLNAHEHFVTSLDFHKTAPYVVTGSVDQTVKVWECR

Variants of: B1
Settings: with lis1_mouse Pafah1b1, P63005

| Variant | effect of a mutation on the interaction |
| --- | --- |
| E119A | disrupting interaction |
| R130A | disrupting interaction |
